Series [1] addresses T1, SALL4 ZFC4 R900W (Mus musculus, UniProt Q8BX22 870-940, R900W).
T1 sequence: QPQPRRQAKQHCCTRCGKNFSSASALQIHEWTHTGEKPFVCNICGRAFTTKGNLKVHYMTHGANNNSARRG
The series is described as follows: EMSA; EMSA: 20 mM HEPES pH 7.5, 150 mM K acetate, 5 mM Mg acetate, 10 ng/ul poly(dI-dC), 68.1 nM DNA, on ice 30 min, gel at 4 C. HT-SELEX: 10 mM Tris-HCl pH 7.5, 50 m. As to conditions: protein: recombinant; tags: His6-GST removed with 3C protease; label: DY681.

Series [2] addresses T2, SALL4 ZFC4 I897S (Mus musculus, UniProt Q8BX22 870-940, I897S).
T2 sequence: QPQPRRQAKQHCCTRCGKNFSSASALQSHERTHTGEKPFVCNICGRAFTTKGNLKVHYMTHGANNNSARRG
The description is as above. As to conditions: protein: recombinant; tags: His6-GST removed with 3C protease; label: DY681.

For series [3], the target named is T3, SALL4 ZFC4 I897S+V925S (Mus musculus, UniProt Q8BX22 870-940, I897S;V925S).
T3 sequence: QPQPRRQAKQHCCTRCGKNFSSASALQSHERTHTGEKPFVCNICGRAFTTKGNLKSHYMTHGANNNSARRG
The series is described as above. Conditions: protein: recombinant; tags: His6-GST removed with 3C protease; label: DY681.

Series [4] deals with T4, SALL4 ZFC4 WT (Mus musculus, UniProt Q8BX22 870-940).
T4 sequence: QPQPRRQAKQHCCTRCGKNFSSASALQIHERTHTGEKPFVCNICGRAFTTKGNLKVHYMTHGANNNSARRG
The series is described as above. As to conditions: protein: recombinant; tags: His6-GST removed with 3C protease; GPDS scar at N-terminus; label: DY681.

The target in series [5] is T4, SALL4 ZFC4 WT. The series is described as follows: EMSA; apparent; patient mutation dataset; poly(dI-dC); EMSA: 68.1 nM DY681-dsDNA, 20 mM HEPES pH 7.5, 150 mM K acetate, 5 mM Mg acetate, 10 ng/ul poly(dI-dC), 30 min on ice; 4% native PAGE, 0.5x TBE, 4 C. Conditions: protein: recombinant; tags: His6-GST removed with 3C protease; GPDS scar at N-terminus; label: DY681. In general terms: A gel shift assay detects complexes by their altered migration in electrophoresis.

Series [6] concerns the target T4, SALL4 ZFC4 WT. The series is described as follows: EMSA; apparent; major groove mutant dataset; poly(dI-dC); EMSA: 68.1 nM DY681-dsDNA, 20 mM HEPES pH 7.5, 150 mM K acetate, 5 mM Mg acetate, 10 ng/ul poly(dI-dC), 30 min on ice; 4% native PAGE, 0.5x TBE, 4 C. As to conditions: protein: recombinant; tags: His6-GST removed with 3C protease; GPDS scar at N-terminus; label: DY681.

For series [7], the target named is T4, SALL4 ZFC4 WT. The series is described as follows: X-ray crystallography 2.76 A; Zn2+; 4 ZFC4 and 4 dsDNA per asymmetric unit, unevenly distributed; 50 mM MES pH 6.0, 20% PEG 3350, 60 mM MgCl2; EMSA: 68.1 nM DY681-dsDNA, 20 mM HEPES pH 7.5, 150 mM K acetate, 5 mM Mg acetate, 10 ng/ul poly(dI-dC), 30 min on ice; 4% native PAGE, 0.5x TBE, 4 C. As to conditions: protein: recombinant; tags: His6-GST removed with 3C protease; GPDS scar at N-terminus; blunt; self-complementary, 2 copies of strand.

The values that follow come from PMC9838217, “Structure of SALL4 zinc finger domain reveals link between AT-rich DNA binding and Okihiro syndrome”.

B1: EMSA AT-rich probe (dsDNA)
DNA 1: AAAAAATATTAAAAA
DNA 2: TTTTTAATATTTTTT
For the molecule B1, the Kd in series [1] worked out at 23 µM; in series [2], 4.8 µM; in series [3], 5.1 µM; in series [4], 615 ± 205 nM; in series [5], 472 nM; in series [6], 760 nM.

B2: palindromic AT-rich crystallisation DNA (dsDNA)
DNA 1: GATATTAATATC
DNA 2: GATATTAATATC
As to B2, the binding result in series [7] is “binds”.
